The target in experiment [1] is hClaudin18.2 (human, UniProt P56856 1-261). Briefly: FACS.
Experiment [2] addresses CLDN18.2 (human, UniProt P56856 1-261). Briefly: FACS.

B1: IMAB362 (antibody, V domains shown)
VH: QVQLQQPGAELVRPGASVKLSCKASGYTFTSYWINWVKQRPGQGLEWIGNIYPSDSYTNYNQKFKDKATLTVDKSSSTAYMQLSSPTSEDSAVYYCTRSWRGNSFDYWGQGTTLTVSS
VL: DIVMTQSPSSLTVTAGEKVTMSCKSSQSLLNSGNQKNYLTWYQQKPGQPPKLLIYWASTRESGVPDRFTGSGSGTDFTLTISSVQAEDLAVYYCQNDYSYPFTFGSGTKLEIKR
With B1, the 50% effective concentration (EC50) in experiment [1] came to 6.72 nM; in experiment [2], 19.1 nM.
